Legend:
[1] = lead binding; Quintanilla-Vega 1995, Smith 1998; read-out: dissociation constant (Kd) of high affinity lead-binding region; cited from earlier work
[2] = Solid phase assay for lead: protein on nitrocellulose with chromogenic dye; conditions: combined results, various buffers, pH, salts and dyes
Protocol: A solid phase assay for the detection of lead was also developed using one or more synthetically produced lead-binding proteins. Both TB4 and ACBP and the various mutants that have been generated from them can be used in this assay. The experiment is performed by binding the protein to a solid surface support, such as nitrocellulose paper, cotton, glass microfibers, or polystyrene beads using, for example, methods described herein. Then the sample to be tested, such as saliva or blood, is placed onto the surface and allowed to react with the protein. After washing with buffer, or example a neutral non-chelating buffer to remove any unreacted material, the sample is treated with a ligand that can detect a lead-leading binding protein complex, for example, a ligand that can cause a color chance upon detecting a lead-protein complex. Examples of such ligands include, sodium sulfide and sodium rhodizonic acid. Furthermore, the concentration of the lead in the sample being tested may be determined by the intensity of the spot produced upon binding of the dye. […]
As a control, the assay was tested using solutions containing several different buffers, pH conditions, and salts for reaction with the sodium sulfide and sodium rhodizonic acid dyes used. […] The pH was determined empirically for rhodizonic acid over a range of pH 4 to pH 8. […]

B1: acyl-CoA binding protein (protein, listed as Homo sapiens)
chain: MSQAEFEKAAEEVRHLKTKPSDEEMLFIYGHYKQATVGDINTERPGMLDFTGKAKWDAWNELKGTSKEDAMKAYINKVEELKKKYGI
In the case of B1, the Kd [1] is given as ~1 nM and the “performance of solid phase lead detection assay” value [2] is given as “works well under various conditions”.
